# Experimental data reported in patent publication US9694061B2, “Fully human antibodies to high molecular weight-melanoma associated antigen and uses thereof” (University of Pittsburgh—Of the Commonwealth System of …, priority 2008, dated 2017).
# B1: scFv C21: HMW-MAA-specific fully human scFv from semi-synthetic phage display library; VH SEQ ID NO: 5, VL SEQ ID NO: 6 (antibody, listed as Homo sapiens, V domains shown)
# VH: QVQLVQSGAEVKKPGSSVKVSCKASGGTFSSYAISWVRQAPGQGLEWMGGIIPIFGTANYAQKFQGRVTITADESTSTAYMELSSLRSDDTAVYYCARALDPITFDSWGQGTLVTVSR
# VL: SELTQDPAVSVALGQTVRITCQGDSLRSYYASWYQQKPGQAPVLVIYGKNNRPSGIPDRFSGSSSGNTASLTITGAQAEDEADYYCNSRDSSGNHVVFGGGTKLTVLGRS
# modifications: scFv linker
# Target: HMW-MAA (Homo sapiens, UniProt Q6UVK1)
# Sequence (Q6UVK1 30-2322): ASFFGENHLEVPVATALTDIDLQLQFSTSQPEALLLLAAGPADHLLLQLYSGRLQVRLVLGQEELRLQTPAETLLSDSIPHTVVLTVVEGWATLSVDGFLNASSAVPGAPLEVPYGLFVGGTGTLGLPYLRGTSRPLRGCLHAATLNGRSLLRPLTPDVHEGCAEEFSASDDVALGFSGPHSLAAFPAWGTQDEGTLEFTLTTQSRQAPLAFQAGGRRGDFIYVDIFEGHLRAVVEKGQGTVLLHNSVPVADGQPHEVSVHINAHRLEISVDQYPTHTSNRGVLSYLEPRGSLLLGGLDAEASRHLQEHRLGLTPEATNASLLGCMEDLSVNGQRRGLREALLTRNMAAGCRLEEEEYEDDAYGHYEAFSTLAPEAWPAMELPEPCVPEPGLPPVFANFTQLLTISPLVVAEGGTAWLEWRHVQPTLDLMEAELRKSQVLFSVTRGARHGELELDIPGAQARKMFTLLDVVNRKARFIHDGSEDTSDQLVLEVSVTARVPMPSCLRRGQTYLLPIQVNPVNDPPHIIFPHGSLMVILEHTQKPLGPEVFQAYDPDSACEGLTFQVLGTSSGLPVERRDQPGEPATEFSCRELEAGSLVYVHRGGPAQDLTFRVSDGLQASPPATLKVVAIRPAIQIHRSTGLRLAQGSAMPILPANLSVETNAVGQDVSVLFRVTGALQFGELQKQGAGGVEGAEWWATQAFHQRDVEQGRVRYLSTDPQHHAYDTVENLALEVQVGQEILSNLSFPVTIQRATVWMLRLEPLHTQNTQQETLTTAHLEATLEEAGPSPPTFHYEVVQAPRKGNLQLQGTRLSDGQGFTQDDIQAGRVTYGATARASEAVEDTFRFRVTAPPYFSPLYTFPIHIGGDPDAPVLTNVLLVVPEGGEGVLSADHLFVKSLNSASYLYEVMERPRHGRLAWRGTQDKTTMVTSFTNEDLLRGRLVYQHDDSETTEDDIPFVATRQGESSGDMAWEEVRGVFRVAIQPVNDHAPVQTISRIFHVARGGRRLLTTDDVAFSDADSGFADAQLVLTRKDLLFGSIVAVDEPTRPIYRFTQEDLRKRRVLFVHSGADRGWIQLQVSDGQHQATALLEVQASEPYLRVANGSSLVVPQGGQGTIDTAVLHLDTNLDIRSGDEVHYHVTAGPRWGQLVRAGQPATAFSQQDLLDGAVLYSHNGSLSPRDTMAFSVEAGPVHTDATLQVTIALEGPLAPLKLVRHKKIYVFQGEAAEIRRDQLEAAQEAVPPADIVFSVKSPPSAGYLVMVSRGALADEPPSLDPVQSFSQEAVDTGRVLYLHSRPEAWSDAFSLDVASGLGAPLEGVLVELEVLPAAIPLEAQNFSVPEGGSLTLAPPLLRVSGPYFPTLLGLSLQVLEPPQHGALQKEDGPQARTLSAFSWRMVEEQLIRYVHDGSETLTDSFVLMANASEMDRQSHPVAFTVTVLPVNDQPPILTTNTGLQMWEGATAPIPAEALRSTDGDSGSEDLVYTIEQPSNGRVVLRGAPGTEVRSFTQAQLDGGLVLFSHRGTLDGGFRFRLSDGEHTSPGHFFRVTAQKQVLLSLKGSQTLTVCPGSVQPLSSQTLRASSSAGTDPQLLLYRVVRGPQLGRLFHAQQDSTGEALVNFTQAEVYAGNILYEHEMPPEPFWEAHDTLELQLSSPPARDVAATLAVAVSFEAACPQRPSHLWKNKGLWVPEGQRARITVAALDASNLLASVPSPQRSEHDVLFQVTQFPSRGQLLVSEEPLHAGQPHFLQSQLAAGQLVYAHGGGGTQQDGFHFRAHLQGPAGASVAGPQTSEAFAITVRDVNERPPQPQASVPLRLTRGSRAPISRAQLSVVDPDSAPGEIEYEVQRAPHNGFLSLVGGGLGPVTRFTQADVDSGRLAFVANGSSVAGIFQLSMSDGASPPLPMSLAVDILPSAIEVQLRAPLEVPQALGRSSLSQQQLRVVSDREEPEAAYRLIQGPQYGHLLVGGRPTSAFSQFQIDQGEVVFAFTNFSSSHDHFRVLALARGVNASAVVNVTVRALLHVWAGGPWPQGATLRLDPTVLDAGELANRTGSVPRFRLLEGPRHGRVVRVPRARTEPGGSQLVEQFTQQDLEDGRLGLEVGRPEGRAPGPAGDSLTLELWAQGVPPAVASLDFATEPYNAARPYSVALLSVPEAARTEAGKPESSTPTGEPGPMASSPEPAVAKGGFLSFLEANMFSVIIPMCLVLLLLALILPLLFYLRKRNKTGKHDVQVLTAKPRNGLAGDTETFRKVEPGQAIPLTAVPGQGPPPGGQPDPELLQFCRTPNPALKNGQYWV
# Assay: Indirect immunoprecipitation and SDS-PAGE from labeled Colo38 cell lysate
# Format: binding
# Protocol: FIG. 3. Structural relationship between molecules recognized by scFv C21 and by HMW-MAA-specific mouse mAb 763.74 in a HMW-MAA^+ Colo38 cell lysate. A 1% NP-40 extract of ^125I-labeled Colo38 cells was immunodepleted with mAb 763.74. The immunodepleted cell extract was immunoprecipitated with insolubilized mAb 763.74 and scFv C21. Antigens were eluted and analyzed by SDS-PAGE in an 8% polyacrylamide gel. Gels were fixed, dried and autoradiographed for up to 1 day at −80° C. A 1% NP-40 extract of ^125I-labeled Colo38 cells immunodepleted with 100 kD MAA-specific mouse mAb 376.94 was used as a control.
# FIG. 4. Role of N-linked glycosylation in the expression of the antigenic determinant recognized by scFv C21 on HMW-MAA isolated from a HMW-MAA^+ Colo38 cell extract. A 1% NP-40 extract of Colo38 cells labelled with ^35S-methionine in the presence of tunicamycin (0, 2 and 3 μg/ml,) was immunoprecipitated with scFv C21. Antigens were eluted from the immunoadsorbent and analyzed by SDS-PAGE in an 8% polyacrylamide gel. Gels were fixed, dried and processed for fluorography for up to three days at −80° C. using Hyperfilm-ECL. HMW-MAA-specific mouse mAb 763.74 was used as a control.
# Labeling of cells with ^125Iodine (Na^125 I; Amersham) or with ^35S methionine (Trans-^35S-label, ICN Biochemicals, Costa Mesa, Calif.) in the presence of tunicamycin (Sigma Chemical Co.) was performed as described (Noronha et al., J Immunol 161:2968-2976, 1998; Desai et al., J Immunol 165:3275-3283, 2000). Solubilization of labelled cells, immunoprecipitation, SDS-PAGE, autoradiography and fluorography were performed as described (Desai et al., Cancer Res 58:2417-2425, 1998) except for the use of Gammon Bind plus sepharose (Amersham) instead of protein A coated with rabbit anti-mouse IgG antibodies.
molecule,measurement,setting,value
B1,Effect of immunodepletion of Colo38 cell lysate with scFv C21 on components immunoprecipitated by mAb 763.74,,"removed most, but not all the components immunoprecipitated by mAb 763.74"
same,Immunoprecipitation from 125I labeled Colo38 cells,,immunoprecipitated two components with the characteristic elecrophoretic profile of HMW-MAA components
same,Intensity of HMW-MAA components immunoprecipitated from Colo38 cells labeled in the presence of tunicamycin,"35S-methionine labeling, N-glycosylation inhibitor tunicamycin",marked reduction in the intensity of the HMW-MAA components immunoprecipitated
same,Immunoprecipitation from Colo38 cell lysate immunodepleted with mAb 763.74,sequential immunoprecipitation,did not immunoprecipitate any components
same,Immunoprecipitation from Colo38 cell lysate immunodepleted with 100KD MAA-specific mAb 376.96,specificity control of immunodepletion,immunoprecipitated the HMW-MAA components
